Reference: publication PMC7173237

Biological target: West Nile virus (Kunjin subtype, strain MRM61C) core (C) protein, trypsin-cleaved fragment Val23-Arg98 (Kunjin virus (strain MRM61C))
Experiment: crystal structure

## West Nile virus (Kunjin subtype, strain MRM61C) core (C) protein, trypsin-cleaved fragment Val23-Arg98 (domain or fragment)
  stoichiometry N: 4
